Test results from the supplement of paper PMC9112550, “Optimization of the antimicrobial peptide Bac7 by deep mutational scanning” (BMC Biology, 2022).
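Note: peptides expressed intracellularly from a pBAD plasmid library in pooled LB shake-flask culture, induced with 0.3% L-arabinose, DNA abundance read by NGS, three biological replicates, DESeq2 with apeglm shrinkage.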

What follows are sequences tested on Escherichia coli TOP10 (assay: shrunken log2 fold change of peptide-encoding DNA abundance (4.5 h post-induction vs induction); higher = less antimicrobial activity (less host growth inhibition)). Conditions: time post-induction: 4.5 h; library: site-saturation at positions 5, 18, 19, 20.
With RRIRTRPPRLPRPRPRPIMYPRP the “shrunken log2 fold change” value was -0.347.
With RRIRTRPPRLPRPRPRPIPPPRP the “shrunken log2 fold change” value was 0.384.
With RRIRTRPPRLPRPRPRPIQVPRP the “shrunken log2 fold change” value was -0.0152.
RRIRTRPPRLPRPRPRPIQWPRP was tested, and the “shrunken log2 fold change” value was 0.015.
For RRIRTRPPRLPRPRPRPIRKPRP, the “shrunken log2 fold change” value was 0.0309.
For RRIRTRPPRLPRPRPRPISPPRP, the “shrunken log2 fold change” value was -0.357.
For RRIRTRPPRLPRPRPRPISQPRP, the “shrunken log2 fold change” value was -0.0474.
RRIRTRPPRLPRPRPRPIYFPRP was tested, and the “shrunken log2 fold change” value was -0.468.
With RRIRTRPPRLPRPRPRPIYIPRP the “shrunken log2 fold change” value was -0.949.
In the case of RRIRTRPPRLPRPRPRPIYVPRP, the “shrunken log2 fold change” value is reported as -0.34.
RRIRTRPPRLPRPRPRPKAHPRP was tested, and the “shrunken log2 fold change” value was 0.182.
With RRIRTRPPRLPRPRPRPKCGPRP the “shrunken log2 fold change” value was -0.0177.
RRIRTRPPRLPRPRPRPKCPPRP was tested, and the “shrunken log2 fold change” value was 0.281.
In the case of RRIRTRPPRLPRPRPRPKDDPRP, the “shrunken log2 fold change” value is reported as -0.124.
RRIRTRPPRLPRPRPRPKELPRP was tested, and the “shrunken log2 fold change” value was 0.16.
With RRIRTRPPRLPRPRPRPKERPRP the “shrunken log2 fold change” value was -0.0679.
With RRIRTRPPRLPRPRPRPKFFPRP the “shrunken log2 fold change” value was -0.00469.
In the case of RRIRTRPPRLPRPRPRPKGCPRP, the “shrunken log2 fold change” value is reported as 0.00952.
For RRIRTRPPRLPRPRPRPKGIPRP, the “shrunken log2 fold change” value was 0.0275.
RRIRTRPPRLPRPRPRPKHYPRP was tested, and the “shrunken log2 fold change” value was -0.339.
RRIRTRPPRLPRPRPRPKIKPRP was tested, and the “shrunken log2 fold change” value was -0.561.
In the case of RRIRTRPPRLPRPRPRPKMSPRP, the “shrunken log2 fold change” value is reported as 0.116.
For RRIRTRPPRLPRPRPRPKPNPRP, the “shrunken log2 fold change” value was 0.186.
For RRIRTRPPRLPRPRPRPKQSPRP, the “shrunken log2 fold change” value was 0.113.
RRIRTRPPRLPRPRPRPKRIPRP was tested, and the “shrunken log2 fold change” value was 0.0762.
RRIRTRPPRLPRPRPRPKRVPRP was tested, and the “shrunken log2 fold change” value was -0.0636.
In the case of RRIRTRPPRLPRPRPRPKRWPRP, the “shrunken log2 fold change” value is reported as 0.723.
RRIRTRPPRLPRPRPRPKSEPRP was tested, and the “shrunken log2 fold change” value was -0.144.
With RRIRTRPPRLPRPRPRPKTVPRP the “shrunken log2 fold change” value was -0.0654.
In the case of RRIRTRPPRLPRPRPRPKTWPRP, the “shrunken log2 fold change” value is reported as -0.268.
For RRIRTRPPRLPRPRPRPKTYPRP, the “shrunken log2 fold change” value was -0.566.
In the case of RRIRTRPPRLPRPRPRPKVQPRP, the “shrunken log2 fold change” value is reported as -0.0279.
In the case of RRIRTRPPRLPRPRPRPKWFPRP, the “shrunken log2 fold change” value is reported as -0.0479.
For RRIRTRPPRLPRPRPRPKYKPRP, the “shrunken log2 fold change” value was -0.407.
With RRIRTRPPRLPRPRPRPLANPRP the “shrunken log2 fold change” value was -0.105.
With RRIRTRPPRLPRPRPRPLCCPRP the “shrunken log2 fold change” value was 1.
RRIRTRPPRLPRPRPRPLCMPRP was tested, and the “shrunken log2 fold change” value was -0.385.
For RRIRTRPPRLPRPRPRPLCQPRP, the “shrunken log2 fold change” value was -0.0705.
RRIRTRPPRLPRPRPRPLCYPRP was tested, and the “shrunken log2 fold change” value was -0.452.
With RRIRTRPPRLPRPRPRPLDAPRP the “shrunken log2 fold change” value was -0.00457.
In the case of RRIRTRPPRLPRPRPRPLDVPRP, the “shrunken log2 fold change” value is reported as -0.594.
In the case of RRIRTRPPRLPRPRPRPLFCPRP, the “shrunken log2 fold change” value is reported as -0.287.
In the case of RRIRTRPPRLPRPRPRPLFDPRP, the “shrunken log2 fold change” value is reported as -0.451.
RRIRTRPPRLPRPRPRPLHIPRP was tested, and the “shrunken log2 fold change” value was 0.0174.
For RRIRTRPPRLPRPRPRPLKCPRP, the “shrunken log2 fold change” value was -0.249.
RRIRTRPPRLPRPRPRPLLDPRP was tested, and the “shrunken log2 fold change” value was 0.214.
With RRIRTRPPRLPRPRPRPLNWPRP the “shrunken log2 fold change” value was -0.246.
In the case of RRIRTRPPRLPRPRPRPLRDPRP, the “shrunken log2 fold change” value is reported as 0.282.
For RRIRTRPPRLPRPRPRPLSMPRP, the “shrunken log2 fold change” value was -0.238.
With RRIRTRPPRLPRPRPRPLSSPRP the “shrunken log2 fold change” value was -0.0339.
RRIRTRPPRLPRPRPRPLSVPRP was tested, and the “shrunken log2 fold change” value was -0.0398.
For RRIRTRPPRLPRPRPRPLTSPRP, the “shrunken log2 fold change” value was -0.255.
RRIRTRPPRLPRPRPRPLTTPRP was tested, and the “shrunken log2 fold change” value was -0.0573.
RRIRTRPPRLPRPRPRPLVSPRP was tested, and the “shrunken log2 fold change” value was -0.0657.
For RRIRTRPPRLPRPRPRPMAGPRP, the “shrunken log2 fold change” value was -0.109.
In the case of RRIRTRPPRLPRPRPRPMCHPRP, the “shrunken log2 fold change” value is reported as -0.228.
For RRIRTRPPRLPRPRPRPMCQPRP, the “shrunken log2 fold change” value was -0.0075.
In the case of RRIRTRPPRLPRPRPRPMCSPRP, the “shrunken log2 fold change” value is reported as -0.0861.
RRIRTRPPRLPRPRPRPMDLPRP was tested, and the “shrunken log2 fold change” value was -0.0399.
For RRIRTRPPRLPRPRPRPMFSPRP, the “shrunken log2 fold change” value was -0.263.
With RRIRTRPPRLPRPRPRPMFYPRP the “shrunken log2 fold change” value was -0.359.
For RRIRTRPPRLPRPRPRPMGEPRP, the “shrunken log2 fold change” value was -0.0305.
For RRIRTRPPRLPRPRPRPMGPPRP, the “shrunken log2 fold change” value was -0.114.
RRIRTRPPRLPRPRPRPMIHPRP was tested, and the “shrunken log2 fold change” value was -0.609.
For RRIRTRPPRLPRPRPRPMIYPRP, the “shrunken log2 fold change” value was -0.465.
In the case of RRIRTRPPRLPRPRPRPMKNPRP, the “shrunken log2 fold change” value is reported as -0.146.
With RRIRTRPPRLPRPRPRPMLIPRP the “shrunken log2 fold change” value was 0.0601.
RRIRTRPPRLPRPRPRPMLWPRP was tested, and the “shrunken log2 fold change” value was 0.143.
For RRIRTRPPRLPRPRPRPMNFPRP, the “shrunken log2 fold change” value was -0.638.
For RRIRTRPPRLPRPRPRPMPNPRP, the “shrunken log2 fold change” value was -0.17.
With RRIRTRPPRLPRPRPRPMQHPRP the “shrunken log2 fold change” value was -0.112.
In the case of RRIRTRPPRLPRPRPRPMRPPRP, the “shrunken log2 fold change” value is reported as 0.93.
RRIRTRPPRLPRPRPRPMRVPRP was tested, and the “shrunken log2 fold change” value was -0.036.
RRIRTRPPRLPRPRPRPMSIPRP was tested, and the “shrunken log2 fold change” value was -0.143.
In the case of RRIRTRPPRLPRPRPRPMSYPRP, the “shrunken log2 fold change” value is reported as 0.0494.
In the case of RRIRTRPPRLPRPRPRPMTCPRP, the “shrunken log2 fold change” value is reported as -0.0817.
For RRIRTRPPRLPRPRPRPMTVPRP, the “shrunken log2 fold change” value was -0.294.
For RRIRTRPPRLPRPRPRPMWCPRP, the “shrunken log2 fold change” value was -0.172.
With RRIRTRPPRLPRPRPRPMWIPRP the “shrunken log2 fold change” value was -0.222.
For RRIRTRPPRLPRPRPRPMWSPRP, the “shrunken log2 fold change” value was -0.0629.
RRIRTRPPRLPRPRPRPMWTPRP was tested, and the “shrunken log2 fold change” value was -0.00193.
RRIRTRPPRLPRPRPRPNACPRP was tested, and the “shrunken log2 fold change” value was -0.0597.
RRIRTRPPRLPRPRPRPNCIPRP was tested, and the “shrunken log2 fold change” value was -0.288.
RRIRTRPPRLPRPRPRPNCTPRP was tested, and the “shrunken log2 fold change” value was -0.485.
RRIRTRPPRLPRPRPRPNDEPRP was tested, and the “shrunken log2 fold change” value was -0.0966.
For RRIRTRPPRLPRPRPRPNDKPRP, the “shrunken log2 fold change” value was -0.605.
In the case of RRIRTRPPRLPRPRPRPNEDPRP, the “shrunken log2 fold change” value is reported as -0.0528.
For RRIRTRPPRLPRPRPRPNHSPRP, the “shrunken log2 fold change” value was -0.925.
With RRIRTRPPRLPRPRPRPNMAPRP the “shrunken log2 fold change” value was -0.155.
In the case of RRIRTRPPRLPRPRPRPNMFPRP, the “shrunken log2 fold change” value is reported as -0.315.
In the case of RRIRTRPPRLPRPRPRPNMIPRP, the “shrunken log2 fold change” value is reported as -0.277.
With RRIRTRPPRLPRPRPRPNNIPRP the “shrunken log2 fold change” value was -0.695.
In the case of RRIRTRPPRLPRPRPRPNPVPRP, the “shrunken log2 fold change” value is reported as -0.0168.
For RRIRTRPPRLPRPRPRPNQLPRP, the “shrunken log2 fold change” value was -0.101.
For RRIRTRPPRLPRPRPRPNRAPRP, the “shrunken log2 fold change” value was -0.244.
For RRIRTRPPRLPRPRPRPNSDPRP, the “shrunken log2 fold change” value was -0.0311.
For RRIRTRPPRLPRPRPRPNTHPRP, the “shrunken log2 fold change” value was -0.451.
RRIRTRPPRLPRPRPRPNTPPRP was tested, and the “shrunken log2 fold change” value was -0.17.
With RRIRTRPPRLPRPRPRPNWCPRP the “shrunken log2 fold change” value was -0.0796.
RRIRTRPPRLPRPRPRPNWDPRP was tested, and the “shrunken log2 fold change” value was 0.00303.
For RRIRTRPPRLPRPRPRPNWFPRP, the “shrunken log2 fold change” value was -0.157.
In the case of RRIRTRPPRLPRPRPRPNWMPRP, the “shrunken log2 fold change” value is reported as 0.286.
With RRIRTRPPRLPRPRPRPNWNPRP the “shrunken log2 fold change” value was -0.335.
RRIRTRPPRLPRPRPRPNYYPRP was tested, and the “shrunken log2 fold change” value was -0.66.
With RRIRTRPPRLPRPRPRPPACPRP the “shrunken log2 fold change” value was 0.313.
RRIRTRPPRLPRPRPRPPCAPRP was tested, and the “shrunken log2 fold change” value was 0.308.
RRIRTRPPRLPRPRPRPPCQPRP was tested, and the “shrunken log2 fold change” value was -0.215.
In the case of RRIRTRPPRLPRPRPRPPCTPRP, the “shrunken log2 fold change” value is reported as -0.0757.
RRIRTRPPRLPRPRPRPPDHPRP was tested, and the “shrunken log2 fold change” value was 0.112.
